B1: OVA/saline: OVA in saline, no adjuvant control (protein, UniProt P01012 2-386, looked up)
Ovalbumin: GSIGAASMEFCFDVFKELKVHHANENIFYCPIAIMSALAMVYLGAKDSTRTQINKVVRFDKLPGFGDSIEAQCGTSVNVHSSLRDILNQITKPNDVYSFSLASRLYAEERYPILPEYLQCVKELYRGGLEPINFQTAADQARELINSWVESQTNGIIRNVLQPSSVDSQTAMVLVNAIVFKGLWEKAFKDEDTQAMPFRVTEQESKPVQMMYQIGLFRVASMASEKMKILELPFASGTMSMLVLLPDEVSGLEQLESIINFEKLTEWTSSNVMEERKIKVYLPRMKMEEKYNLTSVLMAMGITDVFSSSANLSGISSAESLKISQAVHAAHAEINEAGREVVGSAEAGVDAASVSEEFRADHPFLFCIKHIATNAVLFFGRCVSP
B2: OVA/CaCl2: OVA in saline supplemented with 15 mM CaCl2, no adjuvant group (protein, UniProt P01012 2-386, looked up)
Ovalbumin: GSIGAASMEFCFDVFKELKVHHANENIFYCPIAIMSALAMVYLGAKDSTRTQINKVVRFDKLPGFGDSIEAQCGTSVNVHSSLRDILNQITKPNDVYSFSLASRLYAEERYPILPEYLQCVKELYRGGLEPINFQTAADQARELINSWVESQTNGIIRNVLQPSSVDSQTAMVLVNAIVFKGLWEKAFKDEDTQAMPFRVTEQESKPVQMMYQIGLFRVASMASEKMKILELPFASGTMSMLVLLPDEVSGLEQLESIINFEKLTEWTSSNVMEERKIKVYLPRMKMEEKYNLTSVLMAMGITDVFSSSANLSGISSAESLKISQAVHAAHAEINEAGREVVGSAEAGVDAASVSEEFRADHPFLFCIKHIATNAVLFFGRCVSP

Columns and labels:
OVA [1] = test: Anti-OVA antibody responses (ELISA) in immunized C57BL/6 mice; settings: i.n. at 0, 7, 21 d, 10 μg OVA/immunization; 28 d
OVA [2] = format: in vivo, Balb/c mice
EG.7 cells = test: Cytotoxic T lymphocyte (CTL) assay, 51Cr release, spleen cells of immunized mice; format: in vivo, C57BL/6 mice; settings: i.n. at 0, 7, 21 d, 10 μg OVA/immunization; spleen cells at 36-42 d; target EG.7 cells
Experimental: For conducting cytotoxic (cytotolytic) T Lymphocyte (CTL) assays, EL-4 and EG.7 (subclone of EL-4 that has been stably transfected with the gene encoding for OVA expression), cell lines were obtained from the American Type Culture Collection (ATCC, Manassas, Va., USA). Both cell lines were maintained in RPMI 1640 medium (Life Technologies, Grand Island, N.Y.) supplemented with 8% fetal bovine serum (FBS, Invitrogen Canada, Inc., Burlington, Ontario, Canada), except that 400 μg/ml G418 supplement (Invitrogen Canada Inc.) was also added for maintaining the EG.7 cell line. All cells were cultured at 37° C. in a humidified atmosphere of air containing 8% CO2. […]
After 5 days incubation (37° C., 8% CO2 in air), the cells were recovered, washed, and counted for use as effector cells for the CTL assay. […] The culture supernatants were collected and the released radioactivity in 70 μl aliquots for gamma counter or in 50 μl aliquots for beta counter, was measured after adding to 150 μl Optiphase Supermix^R scintillant (PerkinElmer LAS Canada, Inc., Woodbridge, Ontario, Canada). Percent specific cell lysis was calculated as 100×[(cpm experimental−cpm spontaneous)/cpm maximum−cpm spontaneous)]. […]

Row | Molecule | anti-OVA IgA responses in fecal, vaginal wash and serum samples (OVA [1]) | serum IgG, IgG1 and IgG2a responses (OVA [1]) | anti-OVA IgA responses (OVA [2]; mouse, in vivo) | CTL response, specific cell lysis (EG.7 cells) | anti-OVA IgA antibody responses (fecal, vaginal, nasal, bile, serum) (OVA [2]; 28 d)
1 | B1 | Little to no measurable | measurable, but smaller | negligible to not measurable | no CTL response | –
2 | B2 | – | – | – | – | little or no measurable
